# Source: paper PMC12319226 (Frontiers in Bioinformatics, 2025)
# Substitutions are numbered along the chain they refer to.
# T1: fHbp mutant 0014 (Neisseria meningitidis, fHbp v1.1 mutant, point mutant)
# T1 chain: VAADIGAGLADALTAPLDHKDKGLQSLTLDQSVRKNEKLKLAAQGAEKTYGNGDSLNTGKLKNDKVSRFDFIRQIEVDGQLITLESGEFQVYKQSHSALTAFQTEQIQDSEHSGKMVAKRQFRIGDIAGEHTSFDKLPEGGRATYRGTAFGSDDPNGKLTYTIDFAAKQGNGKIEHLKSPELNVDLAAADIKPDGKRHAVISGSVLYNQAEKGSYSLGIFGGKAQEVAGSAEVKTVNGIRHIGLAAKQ
# T2: fHbp mutant 0012 (Neisseria meningitidis, fHbp v1.1 mutant, point mutant)
# T2 chain: T1 chain with I72V, Q74K, P155A, N156G
# T3: fHbp mutant 0024 (Neisseria meningitidis, fHbp v3.28 …, point mutant)
# T3 chain: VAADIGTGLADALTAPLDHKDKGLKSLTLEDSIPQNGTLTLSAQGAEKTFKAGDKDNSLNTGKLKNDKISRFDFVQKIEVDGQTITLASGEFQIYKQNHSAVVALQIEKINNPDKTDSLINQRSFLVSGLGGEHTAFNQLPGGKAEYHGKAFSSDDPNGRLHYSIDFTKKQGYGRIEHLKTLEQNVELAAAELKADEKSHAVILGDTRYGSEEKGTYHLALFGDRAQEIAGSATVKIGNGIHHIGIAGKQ
# T4: fHbp mutant 0022 (Neisseria meningitidis, fHbp v3.28 …, point mutant)
# T4 chain: T3 chain with G210N, E212A, T216S, N239E, G240K, I241V, H243E
# T5: fHbp mutant 0021 (Neisseria meningitidis, fHbp v3.28 …, point mutant)
# T5 chain: T3 chain with Q122K, S124Q, L126R, N239E, G240K, I241V, H243E
# T6: fHbp mutant 0017 (Neisseria meningitidis, fHbp v1.1 mutant, point mutant)
# T6 chain: T1 chain with K38T, K40T, A42S, I72V, Q74K, M116L, A118N
# T7: fHbp mutant 0015 (Neisseria meningitidis, fHbp v1.1 mutant, point mutant)
# T7 chain: T1 chain with I72V, Q74K, Q106K, M116L, A118N
# T8: fHbp mutant 0016 (Neisseria meningitidis, fHbp v1.1 mutant, point mutant)
# T8 chain: T1 chain with K38T, K40T, A42S, E76R, V77S, Q106K, M116L, A118N
# T9: factor H binding protein variant 3.28 (Neisseria meningitidis, fHbp variant …)
# T9 construct: also called fHbp v3.28; v3.28 Control (0002)
# T9 chain: T3 chain with N239E, G240K, I241V, H243E
# B1: mAb 4B3 (human) (antibody, V domains shown)
# VH: QVQLVQSGGGLVKPGGSLRLSCAASGFPFSSYYMSWIRQAPGKGLEWVSDINNSGNVKEYADFVKGRLTISRDNVKNSMYLHMNSLRVEDTAVYYCARNRGRFDVWGQGTLVTVSA
# VL: EIVMTQSPGTLSLSPGETATLSCRASQMISSPFLAWYQQRRGQAPRLLIYGASTRATDTPDRFRGSGSGTDFILTISRLEPEDFAVYYCQYYDDSPFTFGQGTKLEIK
# notes: also called 4B3-2; source: Expi293, purified (MabSelect SuRe, SEC); copies: 2 + 2
# B2: mAb 1E6 (human) (antibody, V domains shown)
# VH: EVQLVQSGAEVKKPGSSVKVSCKASGGTVIDYPITWVRQAPGQGLEWVGGFVPLFRTSNYGQKFQGRVTITADKSTSTASMELNSLTSEDTAIYYCARGDTAMGPFDYWGQGTLVTVSS
# VL: SYVLTQPPSLSVAPGKTATLTCGGNNIAGKTVHWYQQRPGQAPVLVISYDSDRPSGIPERFSGSNSANTATLTISRVEAGDEADYYCQVWDRNSDHWVFGGGTKLTVL
# notes: source: Expi293, purified (MabSelect SuRe, SEC); copies: 2 + 2
# Key:
# Test in all cases: BLI
# Details in all cases: both partners purified
# fHbp mutant 0014 = biological target: T1, fHbp mutant 0014
# fHbp mutant 0012 = biological target: T2, fHbp mutant 0012
# fHbp mutant 0024 = biological target: T3, fHbp mutant 0024
# fHbp mutant 0022 = biological target: T4, fHbp mutant 0022
# fHbp mutant 0021 = biological target: T5, fHbp mutant 0021
# fHbp mutant 0017 = biological target: T6, fHbp mutant 0017
# fHbp mutant 0015 = biological target: T7, fHbp mutant 0015
# fHbp mutant 0016 = biological target: T8, fHbp mutant 0016
# [1] = biological target: T9, factor H binding protein variant 3.28
binder,measurement,setting,value
B1,Kd,fHbp mutant 0014,1.57 nM
same,koff,fHbp mutant 0014,0.00116 s⁻¹
same,kon,fHbp mutant 0014,736500 ± 3130 M⁻¹ s⁻¹
same,Kd,fHbp mutant 0012,1.39 nM
same,koff,fHbp mutant 0012,0.00126 s⁻¹
same,kon,fHbp mutant 0012,906000 ± 2710 M⁻¹ s⁻¹
same,Kd,fHbp mutant 0024,1.48 nM
same,koff,fHbp mutant 0024,0.000969 s⁻¹
same,kon,fHbp mutant 0024,655000 ± 3130 M⁻¹ s⁻¹
same,Kd,fHbp mutant 0022,1.77 nM
same,koff,fHbp mutant 0022,0.000836 s⁻¹
same,kon,fHbp mutant 0022,473200 ± 1420 M⁻¹ s⁻¹
same,Kd,fHbp mutant 0021,1.82 nM
same,koff,fHbp mutant 0021,0.00084 s⁻¹
same,kon,fHbp mutant 0021,460100 ± 2250 M⁻¹ s⁻¹
same,Kd,fHbp mutant 0017,2.98 nM
same,koff,fHbp mutant 0017,0.000964 s⁻¹
same,kon,fHbp mutant 0017,324100 ± 1980 M⁻¹ s⁻¹
same,Kd,fHbp mutant 0015,3.57 nM
same,koff,fHbp mutant 0015,0.00129 s⁻¹
same,kon,fHbp mutant 0015,360000 ± 5970 M⁻¹ s⁻¹
same,Kd,fHbp mutant 0016,4.74 nM
same,koff,fHbp mutant 0016,0.00131 s⁻¹
same,kon,fHbp mutant 0016,276800 ± 1380 M⁻¹ s⁻¹
same,Kd,[1],5.15 nM
same,koff,[1],0.000542 s⁻¹
same,kon,[1],105000 ± 1620 M⁻¹ s⁻¹
B2,Kd,fHbp mutant 0014,2.11 nM
same,koff,fHbp mutant 0014,0.00204 s⁻¹
same,kon,fHbp mutant 0014,964100 ± 5740 M⁻¹ s⁻¹
same,Kd,fHbp mutant 0012,3.52 nM
same,koff,fHbp mutant 0012,0.00661 s⁻¹
same,kon,fHbp mutant 0012,1.88e+06 ± 58600 M⁻¹ s⁻¹
same,Kd,fHbp mutant 0024,0.369 nM
same,koff,fHbp mutant 0024,0.000271 s⁻¹
same,kon,fHbp mutant 0024,734700 ± 2210 M⁻¹ s⁻¹
same,Kd,fHbp mutant 0022,0.601 nM
same,koff,fHbp mutant 0022,0.0003 s⁻¹
same,kon,fHbp mutant 0022,498300 ± 1660 M⁻¹ s⁻¹
same,Kd,fHbp mutant 0021,0.654 nM
same,koff,fHbp mutant 0021,0.000333 s⁻¹
same,kon,fHbp mutant 0021,508900 ± 2640 M⁻¹ s⁻¹
same,Kd,fHbp mutant 0017,4.23 nM
same,koff,fHbp mutant 0017,0.00199 s⁻¹
same,kon,fHbp mutant 0017,471400 ± 4100 M⁻¹ s⁻¹
same,Kd,fHbp mutant 0015,1.42 nM
same,koff,fHbp mutant 0015,0.000862 s⁻¹
same,kon,fHbp mutant 0015,609000 ± 6530 M⁻¹ s⁻¹
same,Kd,fHbp mutant 0016,0.69 nM
same,koff,fHbp mutant 0016,0.000223 s⁻¹
same,kon,fHbp mutant 0016,323000 ± 3620 M⁻¹ s⁻¹
same,Kd,[1],1.76 nM
same,koff,[1],0.000238 s⁻¹
same,kon,[1],135000 ± 961 M⁻¹ s⁻¹
